In article PMC11328874 (2024) one finds ratio to parent data, which are given here for 6 variants.

Sequences and labels used below:
B1: HA-tagged B55α (HA-B55α), wild type [human] / FLAG-Eya3 (human), wild type [human] (parent complex)
chain 1: MAGAGGGNDIQWCFSQVKGAVDDDVAEADIISTVEFNHSGELLATGDKGGRVVIFQQEQENKIQSHSRGEYNVYSTFQSHEPEFDYLKSLEIEEKINKIRWLPQKNAAQFLLSTNDKTIKLWKISERDKRPEGYNLKEEDGRYRDPTTVTTLRVPVFRPMDLMVEASPRRIFANAHTYHINSISINSDYETYLSADDLRINLWHLEITDRSFNIVDIKPANMEELTEVITAAEFHPNSCNTFVYSSSKGTIRLCDMRASALCDRHSKLFEEPEDPSNRSFFSEIISSISDVKFSHSGRYMMTRDYLSVKIWDLNMENRPVETYQVHEYLRSKLCSLYENDCIFDKFECCWNGSDSVVMTGSYNNFFRMFDRNTKRDITLEASRENNKPRTVLKPRKVCASGKRKKDEISVDSLDFNKKILHTAWHPKENIIAVATTNNLYIFQDKVN
chain 2: MEEEQDLPEQPVKKAKMQESGEQTISQVSNPDVSDQKPETSSLASNLPMSEEIMTCTDYIPRSSNDYTSQMYSAKPYAHILSVPVSETAYPGQTQYQTLQQTQPYAVYPQATQTYGLPPFGALWPGMKPESGLIQTPSPSQHSVLTCTTGLTTSQPSPAHYSYPIQASSTNASLISTSSTIANIPAAAVASISNQDYPTYTILGQNQYQACYPSSSFGVTGQTNSDAESTTLAATTYQSEKPSVMAPAPAAQRLSSGDPSTSPSLSQTTPSKDTDDQSRKNMTSKNRGKRKADATSSQDSELERVFLWDLDETIIIFHSLLTGSYAQKYGKDPTVVIGSGLTMEEMIFEVADTHLFFNDLEECDQVHVEDVASDDNGQDLSNYSFSTDGFSGSGGSGSHGSSVGVQGGVDWMRKLAFRYRKVREIYDKHKSNVGGLLSPQRKEALQRLRAEIEVLTDSWLGTALKSLLLIQSRKNCVNVLITTTQLVPALAKVLLYGLGEIFPIENIYSATKIGKESCFERIVSRFGKKVTYVVIGDGRDEEIAAKQHNMPFWRITNHGDLVSLHQALELDFL

The variants in this assay derive from B1. Description: FLAG co-IP followed by Western blot, band quantification; cotransfected HEK cells; three biological replicates; parent: 1; read off a plot.
In the case of chain 1 K345E, the ratio to parent was approximately 0.36.
The result for chain 1 E93A, chain 1 E94A, chain 1 K95A reads approximately 0.4.
Under chain 1 Y178A, chain 1 H179A stands approximately 0.28; under chain 1 D197K, approximately 0.58; under chain 1 E27R, approximately 1.2.
The result for chain 1 K48E reads approximately 1.1.
